The values below are quoted from earlier work in publication PMC7081292.

Where two headings read alike, the source gives them in different places.

In data set [1] the target is T1, His57 (UniProt position 57, VVTAAHCGVTT). Particulars: zwitterionic tetrahedral (hemiacetal) adduct with an aldehyde inhibitor.
Data set [2] has as its target T1, His57. Kind of data set: NMR. The note with it: zwitterionic tetrahedral adduct with a peptide-derived glyoxal inhibitor.

With “Chymotrypsin (not stated (presumably Bos taurus))”, the pKa entry in data set [1] is recorded as “∼ 8”; in data set [2], >11.

The term pKa denotes the negative logarithm of the acid dissociation constant.
